The supplement of paper PMC7125110
± gives the standard error. This sample holds only a part of the variants without activity.

B1: glmS ribozyme (parent)
chain: AUAAAAGCGCCAGAACUACAGAAAUGUAGUUGACGAGGAGGAGGUUUAUCGAAUUUUCGGCGGAUGCCUCCAAA

Variants of: B1
Assay: self-cleavage kobs at 10000 uM GlcN6P; higher = faster cleavage; RNA array
Conditions: with glucosamine-6-phosphate
Procedure, shortened: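 E. coli RNA polymerase transcribed barcoded ribozyme variants in situ on sequenced MiSeq chips, which were tracked via a hybridised Cy3 probe at 37 °C. Tiles were imaged over ~14 h after glucosamine-6-phosphate (40 μM to 10 mM) in HEPES/KCl/Mg(OAc)2 buffer was flowed in. Normalised per-tile medians were fit to one- or two-exponential decays for kobs, and kcat and KM came from weighted Michaelis–Menten fits.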

Compared with G38C A39U U46C, U56C U57A is higher in “self-cleavage kobs at 10000 uM GlcN6P” value: < 1e-05 s⁻¹ for the first, 8.46e-05 ± 1.3e-05 s⁻¹ for the second.

G13C G38A G43C C61U and G9A A12G A36C G38C cannot be ordered by “self-cleavage kobs at 10000 uM GlcN6P” value: < 1e-05 s⁻¹ for the first, < 1e-05 s⁻¹ for the second.

First: A33C A52C U57G G63A
Second: A12G A15U U31G
The “self-cleavage kobs at 10000 uM GlcN6P” value of the first is lower: < 1e-05 s⁻¹ for the first, 0.000128 ± 2.3e-05 s⁻¹ for the second.

C10G A48G G51C and A6C G44A C58U cannot be ordered by “self-cleavage kobs at 10000 uM GlcN6P” value: < 1e-05 s⁻¹ for the first, < 1e-05 s⁻¹ for the second.

Compared with A15C U30C G62U, U30C G32A G66A is higher in “self-cleavage kobs at 10000 uM GlcN6P” value: < 1e-05 s⁻¹ for the first, 0.001 ± 0.00026 s⁻¹ for the second.

A12G G13C G35A and A6C U31A A64C C71G cannot be ordered by “self-cleavage kobs at 10000 uM GlcN6P” value: < 1e-05 s⁻¹ for the first, < 1e-05 s⁻¹ for the second.

C10G A12G C61U and A14U G37A G43C G59C cannot be ordered by “self-cleavage kobs at 10000 uM GlcN6P” value: < 1e-05 s⁻¹ for the first, < 1e-05 s⁻¹ for the second.

Going from C16G U54C C67U to U30A U45C, the “self-cleavage kobs at 10000 uM GlcN6P” value falls from 0.000749 ± 0.00015 s⁻¹ to 0.000307 ± 8.9e-05 s⁻¹ (2.4-fold).

Going from G37C U54G to G7U G29U G37U, the “self-cleavage kobs at 10000 uM GlcN6P” value falls from 3.98e-05 ± 8.6e-06 s⁻¹ to < 1e-05 s⁻¹.

A14G G32C G40U A42G and A6G A12U C16U are within error of each other in “self-cleavage kobs at 10000 uM GlcN6P” value: 6.25e-05 ± 2.1e-05 s⁻¹ for the first, 5.43e-05 ± 2.1e-05 s⁻¹ for the second.

Going from U31A U49A U65C C67G to G13C U47G C70U, the “self-cleavage kobs at 10000 uM GlcN6P” value rises from < 1e-05 s⁻¹ to 5.23e-05 ± 1.4e-05 s⁻¹.

Going from C16A U49G to C8U U47G G63A C70A, the “self-cleavage kobs at 10000 uM GlcN6P” value rises from 2.8e-05 ± 1.1e-05 s⁻¹ to 0.000324 ± 0.00012 s⁻¹ (12-fold).

Compared with A33C C68G, A12U A14U G29A is higher in “self-cleavage kobs at 10000 uM GlcN6P” value: < 1e-05 s⁻¹ for the first, 0.00021 ± 4.5e-05 s⁻¹ for the second.

C10G G37A G60U and G7A G40C A42U G43U U57C cannot be ordered by “self-cleavage kobs at 10000 uM GlcN6P” value: < 1e-05 s⁻¹ for the first, < 1e-05 s⁻¹ for the second.

Going from C16A A36C U57A C61U C67U to G38A A42U C50G C67G, the “self-cleavage kobs at 10000 uM GlcN6P” value rises from < 1e-05 s⁻¹ to 0.000231 ± 6.8e-05 s⁻¹.

G44U U57G G66A C70G and C16U G43C A64C C71G cannot be ordered by “self-cleavage kobs at 10000 uM GlcN6P” value: < 1e-05 s⁻¹ for the first, < 1e-05 s⁻¹ for the second.

First: A6U A36U A42C U65C
Second: C11U A14C A15U G38U C68G
The “self-cleavage kobs at 10000 uM GlcN6P” value of the first is lower: < 1e-05 s⁻¹ for the first, 7.05e-05 ± 3e-05 s⁻¹ for the second.

First: G9U A15U G37U
Second: C11U G29C C71U
The “self-cleavage kobs at 10000 uM GlcN6P” value of the first is lower: < 1e-05 s⁻¹ for the first, 0.000101 ± 1.9e-05 s⁻¹ for the second.

Going from A6U A33G G43C G60U to A12G U45A U55A, the “self-cleavage kobs at 10000 uM GlcN6P” value rises from < 1e-05 s⁻¹ to 0.00202 ± 0.00039 s⁻¹.

G35A G60C C61G A64C G66A and C11U G38U A42G cannot be ordered by “self-cleavage kobs at 10000 uM GlcN6P” value: < 1e-05 s⁻¹ for the first, < 1e-05 s⁻¹ for the second.

Going from U30G G51U U55C C61A to A15U G32C C71U, the “self-cleavage kobs at 10000 uM GlcN6P” value rises from < 1e-05 s⁻¹ to 8.58e-05 ± 2e-05 s⁻¹.

C16U A39C A53G and C11A U47C U55A G59U are within error of each other in “self-cleavage kobs at 10000 uM GlcN6P” value: 0.00494 ± 0.0011 s⁻¹ for the first, 0.00336 ± 0.00065 s⁻¹ for the second.

First: C16U A33G A36C U57G C58G
Second: A6C C34A G37U
The “self-cleavage kobs at 10000 uM GlcN6P” value of the first is higher: 7.07e-05 ± 2e-05 s⁻¹ for the first, < 1e-05 s⁻¹ for the second.

Going from U31C G40C A53G to C16G G35C C58U, the “self-cleavage kobs at 10000 uM GlcN6P” value falls from 0.000261 ± 9.7e-05 s⁻¹ to < 1e-05 s⁻¹.

Going from U57G A64G to C11G G32U A39C, the “self-cleavage kobs at 10000 uM GlcN6P” value falls from 9.48e-05 ± 1.8e-05 s⁻¹ to < 1e-05 s⁻¹.

C16A G35C A39U and C34G G59C C61A A64G cannot be ordered by “self-cleavage kobs at 10000 uM GlcN6P” value: < 1e-05 s⁻¹ for the first, < 1e-05 s⁻¹ for the second.

Going from A53U U65G C67U to C10G U30A G37C A39U G62A, the “self-cleavage kobs at 10000 uM GlcN6P” value falls from 0.00235 ± 0.00042 s⁻¹ to < 1e-05 s⁻¹.

G7U A14U G29C and C10U G38U G63C C70U cannot be ordered by “self-cleavage kobs at 10000 uM GlcN6P” value: < 1e-05 s⁻¹ for the first, < 1e-05 s⁻¹ for the second.

First: G9U U31G U45A C61A C68A
Second: U30G A39U C70A
The “self-cleavage kobs at 10000 uM GlcN6P” value of the first is lower: < 1e-05 s⁻¹ for the first, 7.17e-05 ± 1.8e-05 s⁻¹ for the second.

G41A C61G A64U and G7U C16A G62A cannot be ordered by “self-cleavage kobs at 10000 uM GlcN6P” value: < 1e-05 s⁻¹ for the first, < 1e-05 s⁻¹ for the second.

First: G13C G29U G66A C71U
Second: G41C U56G G62U
The “self-cleavage kobs at 10000 uM GlcN6P” value of the first is higher: 3.46e-05 ± 1.2e-05 s⁻¹ for the first, < 1e-05 s⁻¹ for the second.

First: A6U U54C U55G
Second: C50U C58A C67U
The “self-cleavage kobs at 10000 uM GlcN6P” value of the first is higher: 0.000129 ± 3.3e-05 s⁻¹ for the first, < 1e-05 s⁻¹ for the second.

G13U C34U G37U A53U and G9A A36U U65C cannot be ordered by “self-cleavage kobs at 10000 uM GlcN6P” value: < 1e-05 s⁻¹ for the first, < 1e-05 s⁻¹ for the second.

Going from G13A C50G C70G to G37U G38A G51U, the “self-cleavage kobs at 10000 uM GlcN6P” value falls from 9.61e-05 ± 2e-05 s⁻¹ to < 1e-05 s⁻¹.

Compared with U30C G35C G41U C71A, C16U U31A U45A is higher in “self-cleavage kobs at 10000 uM GlcN6P” value: < 1e-05 s⁻¹ for the first, 0.00606 ± 0.0026 s⁻¹ for the second.

First: A39U U49G U54G
Second: U31A A33U G35U G38U
The “self-cleavage kobs at 10000 uM GlcN6P” value of the first is higher: 0.00053 ± 0.00012 s⁻¹ for the first, < 1e-05 s⁻¹ for the second.

Going from G40U U45A C70G to C16G A33U G35U G63U A64C, the “self-cleavage kobs at 10000 uM GlcN6P” value falls from 0.000163 ± 3.4e-05 s⁻¹ to < 1e-05 s⁻¹.

Compared with A14G C16U A39U, G9U U30A C71U is lower in “self-cleavage kobs at 10000 uM GlcN6P” value: 0.0817 ± 0.036 s⁻¹ for the first, < 1e-05 s⁻¹ for the second.

C11U A15U A42U and G9U C34U A36C G62C cannot be ordered by “self-cleavage kobs at 10000 uM GlcN6P” value: < 1e-05 s⁻¹ for the first, < 1e-05 s⁻¹ for the second.

G7U C8U A12G C70G and U47A C50G G63U U69G are within error of each other in “self-cleavage kobs at 10000 uM GlcN6P” value: 4.36e-05 ± 1.9e-05 s⁻¹ for the first, 5.11e-05 ± 1.5e-05 s⁻¹ for the second.

A33C G44A A48U and A36G A48G C70A cannot be ordered by “self-cleavage kobs at 10000 uM GlcN6P” value: < 1e-05 s⁻¹ for the first, < 1e-05 s⁻¹ for the second.

In the case of G7U A15U C70G, the “self-cleavage kobs at 10000 uM GlcN6P” value is reported as 3.63e-05 ± 1.7e-05 s⁻¹.
